B1: Murine 3F12E7 (antibody, V domains shown)
VH: GELQESGPELVKPGASVKISCKASGYSFTGYYMNWVKHSPEKSLEWIGEINPSTGGTSYNQKFKAKATLTVDKSSTTAYMQLKGLTSEDSAVYYCASGGYYEGFDYWGQGTTVTVSS
VL: DIELTQSPASLSASVGETVTGNIYSYLAWYQQKQGKSPQLLVYDAKTLADGVPSRFTGSGSGTQFSLKINSLQPEDFGSYYCQHFWNTPRTFGGGTKLEIK
B2: 62K98H (antibody, V domains shown)
VH: QITLKESGPTLVKPTQTLTLTCTFSGFSLSTSGVGVGWIRQPPGEALEWLAVIHWNEANYYSPYLRSRLTITKDTSKNQMVLTVTNMDPVDTATYYCARGANSDSSGRLDAFDIWGQGTMVTVSS
VL: DVVMTQSPLSLPVTLGQPASISCRSSQSLIYSDGNTRLYWFHQRPGQSPRRLIYGVSNRDSGVPDRFSGSGSGTDFTLKISRVEAEDVGVYYCMQSTHWPHTFGQGTKLEIK
B3: 85L117H (antibody, V domains shown)
VH: QVQLVQSGAELKRPGSSVKVSCRASGDTFKNYAITWVRQAPGQGLEWVGGIDPLVGVPNYTHRFQGRVTITADEPTSTTYMEFRDLTSDDTAVYYCARGVRDQHWSYFDSWGQGTLVTVSS
VL: QSVLTQPPSASGTPGQTVNISCSGATSNIGGGSVNWYQQLPGAAPRLLIHSDNERASGVPDRFSGSKSGTSASLAISGLQSEDEADYFCASWDDSLDGHVVFGGGTKVTVL

For the assay, the target named is rFGF2 (human, UniProt P09038). As to the kind of experiment: SPR. On the technique in general: Surface plasmon resonance follows binding to a sensor surface in real time, without labels.
Chain of rFGF2 (P09038 143-288): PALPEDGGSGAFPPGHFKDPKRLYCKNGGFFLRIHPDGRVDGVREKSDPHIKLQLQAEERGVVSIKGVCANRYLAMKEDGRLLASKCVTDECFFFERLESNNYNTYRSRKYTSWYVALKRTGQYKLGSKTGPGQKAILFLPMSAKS
Broadly, the Kd is a measure of binding affinity in units of concentration. A high value points to a looser complex. B1: the dissociation constant Kd was 0.413 nM. The result for B2 reads 9.1 nM; that for B3, 17 nM.

The values above are taken from patent US20260297170 (published 2026).
